From article PMC3677924, “Biochemical and Functional Analysis of Drosophila-Sciara Chimeric Sex-Lethal Proteins”

What was measured:
Conditions in all cases: protein: recombinant; tags: GST; label: fluorescein (RNA labelling mix)
SX35 chimera [1] = molecular target: T1, SX35 chimera (Drosophila melanogaster / Sciara …, UniProt P19339 1-123+=R+Q86QM9:73-287, internal_change); test: EMSA; Hill n=1; error 95% CI; 20 mM Hepes pH 8.0, 0.1 M KCl, 0.5 mM EDTA, 1 mM DTT, 0.05% NP40, 20% glycerol, 3 µg yeast tRNA; 5 min on ice, then 10 min at room temperature with RNA; 5% native PAGE, 0.25x TBE
T1 sequence: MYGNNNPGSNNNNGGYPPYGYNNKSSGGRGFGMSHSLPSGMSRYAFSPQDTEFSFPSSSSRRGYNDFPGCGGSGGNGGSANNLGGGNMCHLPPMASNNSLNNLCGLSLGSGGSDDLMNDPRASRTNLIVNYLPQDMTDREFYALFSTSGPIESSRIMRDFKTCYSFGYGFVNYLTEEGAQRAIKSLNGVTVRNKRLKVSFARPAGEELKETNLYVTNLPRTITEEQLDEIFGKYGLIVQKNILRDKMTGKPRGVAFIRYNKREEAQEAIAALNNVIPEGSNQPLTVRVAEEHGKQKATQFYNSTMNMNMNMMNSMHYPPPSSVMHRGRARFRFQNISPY

SX28 chimera [2] = molecular target: T2, SX28 chimera (Drosophila melanogaster / Sciara …, UniProt Q86QM9 1-240+=LE+P19339:293-354, internal_change); test: as above
T2 sequence: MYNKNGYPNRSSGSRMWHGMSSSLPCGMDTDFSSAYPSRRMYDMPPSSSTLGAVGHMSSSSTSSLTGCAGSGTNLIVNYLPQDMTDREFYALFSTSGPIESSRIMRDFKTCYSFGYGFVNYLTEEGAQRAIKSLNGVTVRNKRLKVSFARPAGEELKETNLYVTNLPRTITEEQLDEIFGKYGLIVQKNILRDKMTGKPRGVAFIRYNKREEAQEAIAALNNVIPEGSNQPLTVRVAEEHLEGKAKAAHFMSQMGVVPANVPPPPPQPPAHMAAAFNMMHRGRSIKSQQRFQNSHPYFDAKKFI

SX17 chimera [3] = molecular target: T3, SX17 chimera (Drosophila melanogaster / Sciara …, UniProt Q86QM9 1-71+=R+P19339:125-354, internal_change); test: as above
T3 sequence: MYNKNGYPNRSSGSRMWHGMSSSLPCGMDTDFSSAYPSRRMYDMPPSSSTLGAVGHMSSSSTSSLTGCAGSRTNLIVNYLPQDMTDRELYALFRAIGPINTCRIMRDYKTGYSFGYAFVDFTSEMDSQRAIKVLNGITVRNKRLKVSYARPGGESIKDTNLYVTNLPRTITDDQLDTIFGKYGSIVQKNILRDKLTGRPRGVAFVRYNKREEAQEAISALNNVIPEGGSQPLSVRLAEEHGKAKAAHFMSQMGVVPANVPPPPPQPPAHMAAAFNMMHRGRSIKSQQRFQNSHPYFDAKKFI

SX64 chimera [4] = molecular target: T4, SX64 chimera (Drosophila melanogaster / Sciara …, UniProt P19339 1-292+=LE+Q86QM9:241-287, internal_change); test: as above
T4 sequence: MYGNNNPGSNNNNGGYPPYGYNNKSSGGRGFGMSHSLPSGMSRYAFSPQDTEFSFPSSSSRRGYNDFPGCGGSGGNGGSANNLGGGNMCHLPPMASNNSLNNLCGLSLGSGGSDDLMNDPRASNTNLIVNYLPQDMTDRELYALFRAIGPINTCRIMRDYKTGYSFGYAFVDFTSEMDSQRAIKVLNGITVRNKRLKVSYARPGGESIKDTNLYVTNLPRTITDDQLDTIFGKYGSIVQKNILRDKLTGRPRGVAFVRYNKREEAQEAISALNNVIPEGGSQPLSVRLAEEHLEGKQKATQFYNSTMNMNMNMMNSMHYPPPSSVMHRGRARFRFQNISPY

SX35 chimera [5] = molecular target: T1, SX35 chimera; test: EMSA; apparent Kd, Hill fit; error 95% CI; 20 mM Hepes pH 8.0, 0.1 M KCl, 0.5 mM EDTA, 1 mM DTT, 0.05% NP40, 20% glycerol, 3 µg yeast tRNA; 5 min on ice, then 10 min at room temperature with RNA; 5% native PAGE, 0.25x TBE
SX28 chimera [6] = molecular target: T2, SX28 chimera; test: as above
SX17 chimera [7] = molecular target: T3, SX17 chimera; test: as above
SX64 chimera [8] = molecular target: T4, SX64 chimera; test: as above

| Binder | Kd (SX35 chimera [1]) | Kd (SX28 chimera [2]) | Kd (SX17 chimera [3]) | Kd (SX64 chimera [4]) | Kd (SX35 chimera [5]) | Kd (SX28 chimera [6]) | Kd (SX17 chimera [7]) | Kd (SX64 chimera [8]) |
| --- | --- | --- | --- | --- | --- | --- | --- | --- |
| CAUGAUUAUUUUUUUUUAUUUUUUUUCGGUGA (ssRNA) [double poly(U) SXL site] | 0.9 ± 0.4 µM | 3.8 ± 0.5 µM | 2.4 ± 0.5 µM | 2.3 ± 0.4 µM | – | – | – | – |
| ACAUAUUUUUUUUCACAGC (ssRNA) [single poly(U) SXL site] | – | – | – | – | 230 ± 40 µM | 230 ± 50 µM | 350 ± 50 µM | 180 ± 20 µM |
